Experimental data as given in IntAct's records for PubMed 17498700.

B1: Type-1 angiotensin II receptor (Homo sapiens), P30556 (parent)
chain: MILNSSTEDGIKRIQDDCPKAGRHNYIFVMIPTLYSIIFVVGIFGNSLVVIVIYFYMKLKTVASVFLLNLALADLCFLLTLPLWAVYTAMEYRWPFGNYLCKIASASVSFNLYASVFLLTCLSIDRYLAIVHPMKSRLRRTMLVAKVTCIIIWLLAGLASLPAIIHRNVFFIENTNITVCAFHYESQNSTLPIGLGLTKNILGFLFPFLIILTSYTLIWKALKKAYEIQKNKPRNDDIFKIIMAIVLFFFFSWIPHQIFTFLDVLIQLGIIRDCRIADIVDTAMPITICIAYFNNCLNPLFYGFLGKKFKRYFLQLLKYIPPKAKSHSNLSTKMSTLSYRPSDNVSSSTKKPAPCFEVE

Variants of: B1
Conditions: with arrb1_human ARRB1, P49407
Chain of arrb1_human ARRB1, P49407 (P49407 whole entry): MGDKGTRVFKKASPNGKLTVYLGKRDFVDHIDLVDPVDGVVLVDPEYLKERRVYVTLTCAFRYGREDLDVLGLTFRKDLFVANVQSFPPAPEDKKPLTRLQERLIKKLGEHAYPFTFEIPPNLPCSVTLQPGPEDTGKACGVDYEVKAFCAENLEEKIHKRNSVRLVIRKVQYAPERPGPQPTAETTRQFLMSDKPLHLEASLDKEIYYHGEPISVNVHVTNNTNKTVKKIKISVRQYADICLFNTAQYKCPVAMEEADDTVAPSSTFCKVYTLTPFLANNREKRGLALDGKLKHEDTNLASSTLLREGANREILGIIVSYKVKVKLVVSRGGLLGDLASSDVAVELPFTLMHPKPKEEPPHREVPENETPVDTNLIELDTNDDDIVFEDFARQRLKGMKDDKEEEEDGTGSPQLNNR

Variant	effect of a mutation on the interaction
MILNSSTEDGIKRIQDDCPKAGRHNYIFVMIPTLYSIIFVVGIFGNSLVVIVIYFYMKLKTVASVFLLNLALADLCFLLTLPLWAVYTAMEYRWPFGNYLCKIASASVSFGLYASVFLLTCLSIDRYLAIVHPMKSRLRRTMLVAKVTCIIIWLLAGLASLPAIIHRNVFFIENTNITVCAFHYESQNSTLPIGLGLTKNILGFLFPFLIILTSYTLIWKALKKAYEIQKNKPRNDDIFKIIMAIVLFFFFSWIPHQIFTFLDVLIQLGIIRDCRIADIVDTAMPITICIAYFNNCLNPLFYGFLGKKFKRYFLQLLKYIPPKAKSHSNLSTKMSTLSYRPSDNVSSSTKKPAPCFEVE [N111G]	decreasing interaction

Variants of: B1
Conditions: with gnaq_human GNAQ

Variant	effect of a mutation on the interaction
MILNSSTEDGIKRIQDDCPKAGRHNYIFVMIPTLYSIIFVVGIFGNSLVVIVIYFYMKLKTVASVFLLNLALADLCFLLTLPLWAVYTAMEYRWPFGNYLCKIASASVSFGLYASVFLLTCLSIDRYLAIVHPMKSRLRRTMLVAKVTCIIIWLLAGLASLPAIIHRNVFFIENTNITVCAFHYESQNSTLPIGLGLTKNILGFLFPFLIILTSYTLIWKALKKAYEIQKNKPRNDDIFKIIMAIVLFFFFSWIPHQIFTFLDVLIQLGIIRDCRIADIVDTAMPITICIAYFNNCLNPLFYGFLGKKFKRYFLQLLKYIPPKAKSHSNLSTKMSTLSYRPSDNVSSSTKKPAPCFEVE [N111G]	increasing interaction
